# Measured values taken from article PMC8967877 (2022).
# Square brackets hold non-standard residues; d marks the D form. Ends that are not written are not given here. pT = C[C@@H](OP(=O)(O)O)[C@H](N)C(=O)O
# Key:
# Test in all cases: FP
# [1] = target: Polynucleotide Kinase-Phosphatase (PNKP), human, wild-type (human, UniProt Q96T60-1 1-521)
# wild-type murine PNKP = wild-type murine PNKP (murine, UniProt Q9JLV6 1-522)
# P101L PNKP (human) = P101L PNKP (human) (human, UniProt Q96T60-1 1-521, P101L)
# Chain of wild-type murine PNKP (Q9JLV6 whole entry): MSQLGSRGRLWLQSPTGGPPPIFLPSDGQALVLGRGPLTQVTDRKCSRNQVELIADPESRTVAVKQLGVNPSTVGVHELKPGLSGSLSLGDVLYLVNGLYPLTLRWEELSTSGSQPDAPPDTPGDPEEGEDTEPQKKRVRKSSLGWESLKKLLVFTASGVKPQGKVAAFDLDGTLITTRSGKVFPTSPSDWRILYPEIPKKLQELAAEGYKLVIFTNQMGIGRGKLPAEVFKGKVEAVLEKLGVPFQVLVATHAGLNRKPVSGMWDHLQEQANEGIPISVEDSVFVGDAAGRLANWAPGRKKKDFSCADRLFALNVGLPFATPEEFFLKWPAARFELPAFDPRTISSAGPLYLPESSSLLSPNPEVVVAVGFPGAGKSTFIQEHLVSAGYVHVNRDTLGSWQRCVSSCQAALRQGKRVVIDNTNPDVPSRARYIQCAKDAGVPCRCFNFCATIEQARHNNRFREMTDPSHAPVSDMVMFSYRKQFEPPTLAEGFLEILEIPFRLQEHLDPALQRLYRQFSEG
binder,measurement,setting,value
"GGYDES[pT]DEESKK (also: fluorescent dye label, position not given here) [fluorescent-dye labeled XRCC4-based phosphopeptide (GGYDES-pT-DEESKK)]",Kd,[1],1.08 µM
same,Kd,wild-type murine PNKP,0.76 µM
same,Kd,P101L PNKP (human),> 21 µM
